Data: the DeepSol protein solubility set

Test: soluble on expression in E. coli; label from the status in PepcDB or PDB records

Row | Sequence | soluble on expression in E. coli
1 | MYSTLEQLTKHPVFYHFAEISKIPRGSGNEKEISDYLVGFAKERNLEVIQDEALNVIIKKEATTGYENVPAIIIQGHMDMVCEKNQATVHDFEKDPIELRIIGDMLYANQTTLGADNGIAVAYALALLDSKEIPHPALEVVITTEEETTMGGAFAIDPNHFEGKIFINIDSEEDHKLLVSSAGGAKAVETIPVIWDETPANMDAYRLYVGGLKGGHSGMEIDKQRGNANKVLGRVLRDLSAHTEFNISEVHGGLKTNAIPRESVATLLIRTEDVGQVEEKLESWTRVLQEEMRAVDPDVHVTLTKLDETVEKVFAQETQKQLISSLFLIPNGIQSMSMDIKGLVESSTNLGVIETLQDEIKLRNEVRSSVSSLKQHVAEEIKYIAELVGATFEIESEYPEWPYNPNSQIRNLFEKVHQEKYNKEIEIFAVHAGIECSAFVQKMPELDAISFGPDIFNVHTPDEHISISSVVNNWGFFIDVMKGTKELAK | not soluble
2 | MYTQTLYELSQEAERLLQLSRQQLQLLEKMPLSVPGDDAPQLALPWSQPNIAERHAMLNNELRKISRLEMVLAIVGTMKAGKSTTINAIVGTEVLPNRNRPMTALPTLIRHTPGQKEPVLHFSHVAPIDCLIQKLQQRLRDCDIKHLTDVLEIDKDMRALMQRIENGVAFEKYYLGAQPIFHCLKSLNDLVRLAKALDVDFPFSAYAAIEHIPVIEVEFVHLAGLESYPGQLTLLDTPGPNEAGQPHLQKMLNQQLARASAVLAVLDYTQLKSISDEEVREAILAVGQSVPLYVLVNKFDQQDRNSDDADQVRALISGTLMKGCITPQQIFPVSSMWGYLANRARHELANNGKLPPPEQQRWVEDFAHAALGRRWRHADLADLEHIRHAADQLWEDSLFAQPIQMLLHAAYANASLYALRSAAHKLLNYAQQAREYLDFRAHGLNVACEQLRQNIHQIEESLQLLQLNQAQVSGEIKHEIELALTSANHFLRQQQDALKVQLAALFQDDSEPLSEIRTRCETLLQTAQNTISRDFTLRFAELESTLCRVLTDVIRPIEQQVKMELSESGFRPGFHFPVFHGVVPHFNTRQLFSEVISRQEATDEQSTRLGVVRETFSRWLNQPDWGRGNEKSPTETVDYSVLQRALSAEVDLYCQQMAKVLAEQVDESVTAGMNTFFAEFASCLTELQTRLRESLALRQQNESVVRLMQQQLQQTVMTHGWIYTDAQLLRDDIQTLFTAERY | not soluble
3 | NDAKKYIVSVLILLVAGMFGGCIKEDYSDCPRPFRLTVRAWDADMQDITETGAVQRVVIFVFDETGRRIDRLMMDAAQVAARKPIPLEYDGPTTVSFVAWANPDDHMLEETANVQNVKDLFFRLSSTDGIAQSPGDLFSGVLTCPIEYGSIEQGTDQTVDIYRRTAQVHIIIRGYQEWLEANGPRQLPDYADILLGETPDTYTGLAELIGNAVQYRPDGQIQNGDFISPIFRVYPTLDTTPLHLKLYAYGQELLNISTGSDGVPFIPVIGKMLNIYIDLRGANLNVLVSVTPWDVVQQYAE | not soluble
4 | NDDIIVNWVNRTLSEAGKSTSIQSFKDKTISSSLAVVDLIDAIQPGCINYDLVKSGNLTEDDKHNNAKYAVSMARRIGARVYALPEDLVEVKPKMVMTVFACLMGRGMKRV | soluble
5 | NETEVAKTSQDTTTASSSSEQNQSSNKTQTSAEVQTNAAAYWDGDYYVKDDGSKAQSEWIFDNYYKAWFYINSDGRYSQNEWHGNYYLKSGGYMAQNEWIYDSNYKSWFYLKSDGAYAHQEWQLIGNKWYYFKKWGYMAKSQWQGSYFLNGQGAMIQNEWLYDPAYSAYFYLKSDGTYANQEWQKVGGKWYYFKKWGYMARNEWQGNYYLTGSGAMATDEVIMDGARYIFAASGELKEKKDLNVGWVHRDGKRYFFNNREEQVGTEHAKKIIDISEHNGRINDWKKVIDENEVDGVIVRLGYSGKEDKELAHNIKELNRLGIPYGVYLYTYAENETDAENDAKQTIELIKKYNMNLSYPIYYDVQNWEYVNKSKRAPSDTDTWVKIINKYMDTMKQAGYQNVYVYSYRSLLQTRLKHPDILKHVNWVAAYTNALEWENPYYSGEKGWQYTSSEYMKGIQGRVDVSVWY | soluble
6 | NFIYAHLNRIIRRDDLNMIYIAGPGHGGPALVANTYLEGTYSEHYPDISQDIQGMKHLFRQFSFPGGIGSHATPEIPGSIHEGGELGYALSHAFGAVFDNPDLIAACVVGDGEAETGPLATAWHSNKFLNPVHDGAVLPILHLNGYKIANPTILARISREELDQLFQGYGYQPYIVEGEDPLTMHQLMA | not soluble
